Test results as given in paper PMC8949118, “The Transcription Factor SpoVG Is of Major Importance for Biofilm Formation of Staphylococcus epidermidis under In Vitro Conditions, but Dispensable for In Vivo Biofilm Formation”.

Tests used:
HAT-HA-SpoVG [1] = biological target: T1, HAT-HA-SpoVG (Staphylococcus epidermidis 1457, UniProt Q8CML1 1-102); assay: EMSA; 2-12 uM SpoVG, 2 mM Mg2+; 20 mM HEPES pH 8.0, 10 mM KCl, 2 mM MgCl2, 0.1 mM EDTA, 0.1 mM DTT, 50 ug/mL BSA, 10% glycerol; 200 fmol probe in 20 uL; 30 min room temperature; 2.5% agarose gel in cold TAE; settings: protein: recombinant; tags: N-terminal HAT-HA-linker; label: DYE682; blunt
T1 sequence: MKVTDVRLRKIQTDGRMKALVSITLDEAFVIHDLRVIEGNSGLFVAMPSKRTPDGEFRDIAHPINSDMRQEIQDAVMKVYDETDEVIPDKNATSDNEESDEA

HAT-HA-SpoVG [2] = biological target: T1, HAT-HA-SpoVG; assay: competition EMSA; 10x or 20x excess over labeled icaA probe; 20 mM HEPES pH 8.0, 10 mM KCl, 2 mM MgCl2, 0.1 mM EDTA, 0.1 mM DTT, 50 ug/mL BSA, 10% glycerol; 200 fmol probe in 20 uL; 30 min room temperature; 2.5% agarose gel in cold TAE; settings: protein: recombinant; tags: N-terminal HAT-HA-linker; blunt
HAT-HA-SpoVG [3] = biological target: T1, HAT-HA-SpoVG; assay: EMSA; 12 uM SpoVG, 2 mM Mg2+; 20 mM HEPES pH 8.0, 10 mM KCl, 2 mM MgCl2, 0.1 mM EDTA, 0.1 mM DTT, 50 ug/mL BSA, 10% glycerol; 200 fmol probe in 20 uL; 30 min room temperature; 2.5% agarose gel in cold TAE; settings: protein: recombinant; tags: N-terminal HAT-HA-linker; label: DYE682; blunt

B1: icaA probe (dsDNA)
DNA 1: TAACAACATTCTATTGCAAATTGAAATACTTTCGATTAGCATATGCTTTACAACCTAACTAACGAAAGGTAGGTGAAAAA
DNA 2: TTTTTCACCTACCTTTCGTTAGTTAGGTTGTAAAGCATATGCTAATCGAAAGTATTTCAATTTGCAATAGAATGTTGTTA
B1: binds (HAT-HA-SpoVG [1]).

B2: unlabeled icaA probe (dsDNA)
DNA 1: TAACAACATTCTATTGCAAATTGAAATACTTTCGATTAGCATATGCTTTACAACCTAACTAACGAAAGGTAGGTGAAAAA
DNA 2: TTTTTCACCTACCTTTCGTTAGTTAGGTTGTAAAGCATATGCTAATCGAAAGTATTTCAATTTGCAATAGAATGTTGTTA
B2: binds (HAT-HA-SpoVG [2]).

B3: secA p control probe (dsDNA)
DNA 1: AGTATAATTTTCTAACTATAAATGATAAGATATATTGTTGTAGGCCAAACAGTTTTTTAGCTAAAGGAGCGAACGAAATG
DNA 2: CATTTCGTTCGCTCCTTTAGCTAAAAAACTGTTTGGCCTACAACAATATATCTTATCATTTATAGTTAGAAAATTATACT
B3: no binding (HAT-HA-SpoVG [3]).
